Primed or numbered codes have the meaning given here. Ends that are not written are not given here. FITC′ = not defined here
Experiments:
[1] = tested on: KKU-213 subcutaneous tumor; experiment: Tumor homing assay (IVIS imaging)
Procedure: Four-week-old BALB/c female nude mice were purchased from Orient Bio (Seongnam, Republic of Korea). The mice were cared for and maintained in conformance with the Guidelines of the Institutional Animal Care and Use Committee (IACUC) of Kyungpook National University (permission no. 2017-0077). The mice were maintained in specific-pathogen free condition, controlled temperature (22±2° C.), humidity (50±10%), and light/dark cycle (12:12 h). Sterile tablet food, water and bedding were provided ad libitum. The mice were injected subcutaneously with approximately two million KKU-213 cells resuspended in 100 μl DMEM. When the tumor size reached 200 mm^3 after approximately 4 weeks, the mice were intravenously injected with near-infrared Flamma Fluor 675-labeled peptides. After 2 h, the signal was detected using the In Vivo Imaging System (IVIS) (PerkinElmer, Waltham, MA, USA). During the analysis the mice were anesthetized with 2.5% isoflurane in a gas chamber supplied with oxygen flowmeter 0.8 L/min. […] The frozen tissues were prepared for histological examination.
To examine the tumor homing of […] (SEQ ID NO: 1) peptide, the peptide was conjugated with Flamma 675 near-infrared dye and intravenously injected into mice bearing KKU-213 subcutaneous tumor.

[2] = Systemic side effects in treated tumor-bearing mice (body weight, blood markers); assay type: in vivo; conditions: after treatment, 10 mg/kg intravenous three times per week
From the text: (§1) To exploit the use of CSTLNVESC (SEQ ID NO: 1) peptide for targeted cancer therapy, a Trop2-targeted cytotoxic peptide consisting of CSTLNVESC (SEQ ID NO: 1), RRRRRRR (SEQ ID NO: 2) (R7), and KLAKLAKKLAKLAK (SEQ ID NO: 3) (KLA) peptides was synthesized and named CSTLNVESC (SEQ ID NO: 1)-R7-KLA. R7 is a well-known cell-penetrating peptide that enhances the internalization of peptides and proteins into cells. KLA is a cytotoxic peptide that may cause damage to mitochondrial membrane of mammalian cells when introduced into cells and induce cell death. CSTLNVESC (SEQ ID NO: 1)-R7-KLA was intravenously injected into mice bearing KKU-213 tumor (10 mg/kg, three times per week, FIG. 12A). CSTLNVESC (SEQ ID NO: 1)-targeted R7-KLA peptide reduced tumor volume (FIG. 12B) and tumor weight (FIG. 12C) more efficiently than the control peptide-targeted R7-KLA or combined treatment of CSTLNVESC (SEQ ID NO: 1), R7, and KLA.

KKU-213 tumor = experiment: Anti-tumor growth activity in tumor-bearing mice; assay type: in vivo; conditions: 10 mg/kg intravenous, three times per week; versus control peptide-targeted R7-KLA or combined CSTLNVESC, R7, and KLA
From the text: as §1

KKU-213 cells [3] = experiment: Flow cytometry binding of FITC-labeled peptide; assay type: cell-based, human
Procedure: (§2) A million cells were prepared, fixed with 4% PFA, and blocked with 1% BSA at RT for 30 min. The cells were reacted with mouse anti-Trop2 antibody at RT for 1 h with agitation. Then, cells were reacted with Alexa Fluor 488-labeled anti-mouse IgG antibody at RT for 1 h. For peptide binding, cells were reacted with FITC-labeling peptide at 4° C. for 1 h with agitation. The stained cells were fixed with 4% PFA before analysis with a flow cytometer.
(§3) To examine the binding of CSTLNVESC (SEQ ID NO: 1) peptide to cells, CSTLNVESC (SEQ ID NO: 1) peptide was tagged with FITC fluorescence dye at the carboxy terminus. […] In contrast, NSSSVDK-FITC control peptide weakly bound to both cell lines. Binding of CSTLNVESC (SEQ ID NO: 1)-FITC peptide, but not NSSSVDK-FITC peptide, to Trop2-expressing KKU-213 cells was also observed by immunofluorescence microscopic analysis (FIG. 5B).

KKU-055 cells [4] = experiment: Flow cytometry binding of FITC-labeled peptide; assay type: cell-based, human
Procedure: as §2
as §3, with “CSTLNVESC” left out

[5] = tested on: Trop2-expressing KKU-213 cells; experiment: Immunofluorescence microscopic analysis of FITC-peptide binding; assay type: cell-based, human
Procedure: For co-localization assays, cells were reacted with FITC-conjugated peptide at 4° C. for 1 h and fixed with 4% PFA at RT for 10 min. Next, cells were reacted with mouse anti-Trop2 antibody at 4° C. overnight and then with Alexa Fluor 594-labeled anti-mouse IgG antibody (Thermo Fisher Scientific) at RT for 1 h. Cells were counter-stained with DAPI and enclosed with an anti-fade agent. The slides were examined using a confocal microscope.
as §3

[6] = tested on: HeLa cervical tumor cells; experiment: FITC-peptide cell binding (FIG. 6B); assay type: cell-based
H460 lung tumor cells = experiment: FITC-peptide cell binding (FIG. 6B); assay type: cell-based
[7] = tested on: Trop2-overexpressing MCF7 breast tumor cells; experiment: FITC-peptide cell binding (FIG. 6B); assay type: cell-based
[8] = tested on: Trop2-overexpressing HEK293T cells; experiment: FITC-peptide cell binding (FIG. 6A); assay type: cell-based, human
[9] = tested on: Trop2-silenced KKU-213 cells; experiment: FITC-peptide binding after Trop2 silencing with siRNAs; assay type: cell-based, human; conditions: KKU-213 transfected with Trop2 siRNAs for 24 h
From the text: To prepare Trop2-overexpressing cells for biopanning, pCMV6-AC-GFP plasmid including human Trop2 gene, tacstd2, (Origene, Rockville, MD, USA) was transfected into HEK293T cells using Lipofectamine 2000 (Thermo Fisher Scientific, Waltham, MA, USA). For Trop2 silencing, KKU-213 cells were transfected with a small-interfering RNA (siRNA) against Trop2 gene (Qiagen, Venlo, Netherlands) or control siRNA (Bioneer, Oakland, CA) using Lipofectamine RNAiMAX (Thermo Fisher Scientific). Two siRNAs, siTrop21 and siTrop22 have been designed specifically to target sequences; 5′-CCCGGGATCGTTTGCAAGTAA-3 (SEQ ID NO: 4)′ and 5′-TTGCGACATTGTGAAGGCTTA-3 (SEQ ID NO: 5)′. The silencing efficiencies were analyzed by Western blots.
For co-localization assays, cells were reacted with FITC-conjugated peptide at 4° C. for 1 h and fixed with 4% PFA at RT for 10 min. […]
To further examine whether the binding of CSTLNVESC (SEQ ID NO: 1)-FITC peptide to the Trop2-overexpressing cells was mediated by Trop2, Trop2 gene expression in KKU-213 cells was silenced using Trop2 siRNAs. Trop2 expression was reduced after transfection with Trop2 siRNAs for 24 h as determined by western blotting (FIG. 5C), immunofluorescence microscopy (FIG. 5D), and flow cytometry (FIG. 5E). […]

KKU-055 cells [10] = experiment: Cell binding affinity assay using the Ligand Tracer; parameters: species or system human
Procedure: To determine the cell binding affinity of CSTLNVESC (SEQ ID NO: 1) peptide, a binding assay using the Ligand Tracer was performed. The machine continuously monitored the CSTLNVESC (SEQ ID NO: 1)-FITC peptide binding to KKU-213 or KKU-055 cells that was dose and time-dependent.

KKU-213 cells [11] = experiment: Transwell migration assay; assay type: cell-based, human; conditions: dose-dependent
Procedure: (§4) Serum-starved KKU-213 cells were resuspended with serum-free medium containing peptide and added to the 8.0 μm pore polycarbonate insert of a Transwell chamber (Corning Life Sciences, Tewksbury, MA, USA). For the invasion assay, the membrane was coated with 0.3 μg Matrigel matrix (Corning Life Sciences) at 37° C. for 2 h before use. Serum-containing or serum-free medium was added to the reservoir and reacted at 37° C. overnight. The migrated or invaded cells were fixed and stained with 0.1% crystal violet solution at RT for 10 min. The stained cells were counted under a light microscope.
(§5) Trop2 is involved in EMT and metastasis, and to examine whether CSTLNVESC (SEQ ID NO: 1) peptide affects cell migration and invasion, trans-well chamber assays were performed.

[12] = Serum stability analysis by HPLC; assay type: in vitro ADME; conditions: mouse serum, 37° C., 24 h incubation, declined thereafter
Procedure: CSTLNVESC (SEQ ID NO: 1) peptide was stable until 16 h and declined thereafter (FIG. 9).

KKU-213 cells [13] = experiment: Transwell invasion assay (Matrigel); assay type: cell-based, human; conditions: dose-dependent
Procedure: as §4, §5

KKU-055 cells [14] = experiment: Cytotoxicity of peptide in cholangiocarcinoma cell line; assay type: cell-based, human; conditions: 24 h, concentration up to 256 μM
Procedure: (§6) To examine whether CSTLNVESC (SEQ ID NO: 1) peptide affects cell survival, KKU-213 and KKU-055 cells were reacted with the peptide for 24 h.

KKU-213 cells [15] = experiment: as above; assay type: cell-based, human; conditions: 24 h, concentration up to 256 μM
Procedure: as §6

[16] = biological target: T1, Trop2 (trophoblast antigen 2) expressed on human tumor cell lines (human, UniProt P09758 27-323); experiment: Ligand Tracer, real-time binding of FITC-peptide to KKU-213 cells
T1 construct: whole, on cells; Endogenous membrane glycoprotein; also called tacstd2; Trop2-positive KKU-213 cells
T1 sequence (looked up): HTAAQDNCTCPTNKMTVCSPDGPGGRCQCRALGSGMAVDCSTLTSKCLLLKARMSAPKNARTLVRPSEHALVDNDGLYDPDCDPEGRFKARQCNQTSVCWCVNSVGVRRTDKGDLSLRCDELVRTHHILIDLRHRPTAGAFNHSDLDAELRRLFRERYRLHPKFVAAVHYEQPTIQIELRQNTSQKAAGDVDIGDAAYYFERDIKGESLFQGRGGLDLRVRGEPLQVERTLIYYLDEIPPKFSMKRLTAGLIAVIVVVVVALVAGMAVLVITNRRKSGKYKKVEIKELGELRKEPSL
Procedure: To determine the cell binding affinity of […] (SEQ ID NO: 1) peptide, a binding assay using the Ligand Tracer was performed.

Q: With “CSTLNVESC (SEQ ID NO: 1)-Flamma 675: CSTLNVESC peptide conjugated with Flamma 675 near-infrared dye (cysteine pairing not given here; also: conjugated with Flamma 675 near-infrared dye, site not given here)” as the molecule, how does the “accumulation in tumor, ex vivo imaging and average photons in isolated organs” value ([1]; mouse, in vivo) read?
A: accumulation

Q: What about the “average photons in tumor” value ([1]; mouse, in vivo) of the same molecule?
A: higher than those of the control peptide

Q: What about the “tumor homing, whole-body imaging” value ([1]; mouse, in vivo, iv) of the same molecule?
A: homed to tumor more efficiently than the control peptide

Q: Which “level of kidney function marker BUN” value [2] does the source give for “CSTLNVESC (SEQ ID NO: 1)-R7-KLA: Trop2-targeted cytotoxic peptide consisting of CSTLNVESC, RRRRRRR (R7), and KLAKLAKKLAKLAK (KLA) peptides (CSTLNVESCRRRRRRRKLAKLAKKLAKLAK)” here?
A: within normal ranges

Q: What about the “level of kidney function marker creatinine” value [2] of the same molecule?
A: within normal ranges

Q: What about the “level of liver function enzyme ALP” value [2] of the same molecule?
A: within normal ranges

Q: And the “level of liver function enzyme ALT” value [2]?
A: within normal ranges

Q: What about the “level of liver function enzyme AST” value [2] of the same molecule?
A: within normal ranges

Q: And the tumor volume (KKU-213 tumor)?
A: reduced

Q: What about the tumor weight (KKU-213 tumor) of the same molecule?
A: reduced

Q: With “NSSSVDK-FITC: FITC-labeled NSSSVDK control peptide (also: FITC label, site not given here) [reference compound]” as the molecule, how does the “binding to cells (flow cytometry)” value (KKU-213 cells [3]) read?
A: weakly bound

Q: And the “binding to cells (flow cytometry)” value (KKU-055 cells [4])?
A: weakly bound

Q: With “CSTLNVESC (SEQ ID NO: 1)-FITC (CSTLNVESC-{FITC′}; cysteine pairing not given here) [… peptide tagged with FITC fluorescence dye at the carboxy terminus]” as the molecule, how does the “binding to cells (immunofluorescence microscopy)” value [5] read?
A: observed

Q: What about the “binding to cells (flow cytometry)” value (KKU-213 cells [3]) of the same molecule?
A: bound to KKU-213 cells at higher levels than to KKU-055 cells

Q: What about the binding to cells [6] of the same molecule?
A: selectively bound

Q: What about the binding to cells (H460 lung tumor cells) of the same molecule?
A: selectively bound

Q: And the binding to cells [7]?
A: selectively bound

Q: And the binding to cells [8]?
A: selectively bound

Q: And the “binding to Trop2-silenced cells” value [9]?
A: reduced

Q: What about the “binding (Ligand Tracer)” value (KKU-055 cells [10]) of the same molecule?
A: hardly detected

Q: For CSTLNVESC [CSTLNVESC (SEQ ID NO: 1)], which “accumulation and co-localization with Trop2 in tumor tissues (immunofluorescence)” value ([1]; anti-Trop2 antibody staining of tumor tissue) is on record?
A: accumulated and co-localized with Trop2 in tumor tissues

Q: What about the “average photons in other organs, versus control peptide” value ([1]; isolated organs except kidney) of the same molecule?
A: similar

Q: And the serum-induced migration (KKU-213 cells [11])?
A: inhibited

Q: And the “time until which peptide was stable in serum” value [12]?
A: 16 h

Q: And the serum-induced invasion (KKU-213 cells [13])?
A: inhibited

Q: What about the cytotoxicity (KKU-055 cells [14]) of the same molecule?
A: No cytotoxicity

Q: What about the cytotoxicity (KKU-213 cells [15]) of the same molecule?
A: No cytotoxicity

B1: CSTLNVESC (SEQ ID NO: 1)-FITC peptide (peptide)
peptide: CSTLNVESC-{FITC′}
modifications: cysteine pairing not given here
notes: Synthetic peptide (Fmoc), from a CX7C T7 phage library; also called FITC-conjugated peptide
Q: Which Kd [16] does the source give for B1 here?
A: 5.21 µM

— patent US20260085091A1, “PEPTIDES THAT SELECTIVELY BIND TO Trop2 AND USE THEREOF” (KYUNGPOOK NATIONAL UNIVERSITY INDUSTRY-ACADEMIC COOPERATION …, priority 2022, published 2026)
